Molecular target: SV40 large T antigen (Tag) (Simian virus 40) (UniProt P03070)
Test: DSF

SV40 large T antigen (Tag) (Simian virus 40), sequence (P03070 whole entry): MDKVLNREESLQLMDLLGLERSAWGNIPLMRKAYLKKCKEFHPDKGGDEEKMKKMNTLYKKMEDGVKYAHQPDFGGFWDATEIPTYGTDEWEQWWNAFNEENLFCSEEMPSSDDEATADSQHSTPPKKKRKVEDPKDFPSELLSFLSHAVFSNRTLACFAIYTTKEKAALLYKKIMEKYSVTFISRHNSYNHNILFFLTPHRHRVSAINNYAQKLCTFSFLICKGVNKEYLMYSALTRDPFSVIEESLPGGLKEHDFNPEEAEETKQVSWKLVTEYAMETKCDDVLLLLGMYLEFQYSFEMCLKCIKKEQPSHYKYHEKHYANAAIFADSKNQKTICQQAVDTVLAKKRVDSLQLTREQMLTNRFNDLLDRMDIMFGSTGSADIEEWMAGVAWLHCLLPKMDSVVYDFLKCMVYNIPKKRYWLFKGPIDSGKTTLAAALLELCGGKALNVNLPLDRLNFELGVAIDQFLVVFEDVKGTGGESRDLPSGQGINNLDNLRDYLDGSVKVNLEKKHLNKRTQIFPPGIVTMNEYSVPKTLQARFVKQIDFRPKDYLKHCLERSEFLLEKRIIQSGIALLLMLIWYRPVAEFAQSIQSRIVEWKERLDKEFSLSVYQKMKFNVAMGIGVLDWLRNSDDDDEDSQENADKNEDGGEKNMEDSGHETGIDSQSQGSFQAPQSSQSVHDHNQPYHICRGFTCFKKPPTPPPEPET

Question: For Poly(dT), which Kd is on record?
Answer: Its Kd is 40 nM.
